Blank lines part the entries; values can stand above or below the substance they belong to.
Legend:
[1] = target: HA-PKM2 (wild type), expressed in 293T cells (human) (UniProt P14618); experiment: SEC; cell lysates (A549, H1299 or transfected 293T; with shCIP2A, pCDH-CIP2A or Flag-CIP2A) on Superdex 200 Increase 10/300 GL, 50 mM sodium phosphate, 0.15 M NaCl, pH 7.2; fractions analysed by western blot; both exogenous and endogenous PKM2 included
[2] = target: purified recombinant WT PKM2 expressed in bacteria (human) (UniProt P14618); experiment: SEC; purified recombinant WT, S287A and S287D PKM2 expressed in bacteria; size exclusion chromatography with molecular mass standards
[3] = target: pyruvate kinase M2 (PKM2), endogenous (human (endogenous in A549 and H1299)) (UniProt P14618); experiment: cross-linking; H1299 cell lysates (with Flag-CIP2A or siCIP2A) treated with 0.01% glutaraldehyde at 37 °C for 9 min, SDS-PAGE, western blot with anti-PKM2

Chain of purified recombinant WT PKM2 expressed in bacteria, P14618 1-531 (enzyme; other documents disagree on this pair) (P14618 whole entry): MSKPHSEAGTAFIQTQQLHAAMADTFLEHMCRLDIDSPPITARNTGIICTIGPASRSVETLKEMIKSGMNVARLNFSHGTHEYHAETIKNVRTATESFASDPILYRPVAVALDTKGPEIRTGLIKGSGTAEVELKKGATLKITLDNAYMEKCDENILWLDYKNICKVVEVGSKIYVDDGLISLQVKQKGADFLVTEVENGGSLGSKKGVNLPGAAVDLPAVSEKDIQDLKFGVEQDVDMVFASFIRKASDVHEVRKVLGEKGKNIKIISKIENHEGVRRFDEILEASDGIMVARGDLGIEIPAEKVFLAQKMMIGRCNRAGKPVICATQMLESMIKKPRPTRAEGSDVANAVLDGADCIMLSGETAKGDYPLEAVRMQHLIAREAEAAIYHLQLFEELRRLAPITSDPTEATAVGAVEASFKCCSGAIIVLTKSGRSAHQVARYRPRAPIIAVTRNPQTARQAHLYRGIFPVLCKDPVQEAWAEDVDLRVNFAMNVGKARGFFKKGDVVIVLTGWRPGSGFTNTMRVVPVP
Chain of pyruvate kinase M2 (PKM2), endogenous, P14618 1-531 (enzyme; other documents disagree on this pair) (P14618 whole entry): as above
Chain of HA-PKM2 (wild type), expressed in 293T cells, P14618 1-531 (enzyme; other documents disagree on this pair) (P14618 whole entry): as above

- stoichiometry N [1]: 2
Substance: HA-PKM2 (wild type), expressed in 293T cells, P14618 1-531 (enzyme; other documents disagree on this pair)

- stoichiometry N [2]: 2
Substance: purified recombinant WT PKM2 expressed in bacteria, P14618 1-531 (enzyme; other documents disagree on this pair)

- stoichiometry N [3]: 2
Substance: pyruvate kinase M2 (PKM2), endogenous, P14618 1-531 (enzyme; other documents disagree on this pair)
